T1: GST-KBP (Kinesin-Binding Protein) (human, UniProt Q96EK5 1-621)
T1 sequence (looked up): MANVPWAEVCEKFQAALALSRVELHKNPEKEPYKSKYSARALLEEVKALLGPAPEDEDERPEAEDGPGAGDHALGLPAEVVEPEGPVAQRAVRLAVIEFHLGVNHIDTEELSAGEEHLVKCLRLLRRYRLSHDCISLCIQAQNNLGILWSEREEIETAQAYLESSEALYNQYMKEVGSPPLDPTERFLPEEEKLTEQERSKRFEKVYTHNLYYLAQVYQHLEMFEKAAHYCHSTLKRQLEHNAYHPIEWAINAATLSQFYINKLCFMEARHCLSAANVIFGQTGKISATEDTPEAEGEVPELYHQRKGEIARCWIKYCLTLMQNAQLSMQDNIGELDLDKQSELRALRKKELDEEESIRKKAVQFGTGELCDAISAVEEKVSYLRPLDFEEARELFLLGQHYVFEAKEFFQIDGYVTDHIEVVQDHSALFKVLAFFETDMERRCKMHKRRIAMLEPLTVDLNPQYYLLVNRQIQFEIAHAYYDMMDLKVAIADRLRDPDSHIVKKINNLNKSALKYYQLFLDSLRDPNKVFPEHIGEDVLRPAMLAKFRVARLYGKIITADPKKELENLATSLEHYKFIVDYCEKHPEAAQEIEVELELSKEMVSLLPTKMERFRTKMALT

B1: KIF18A-N480-GFP-His6 (domain or fragment, human, UniProt Q8NI77 1-480, looked up)
chain: MSVTEEDLCHHMKVVVRVRPENTKEKAAGFHKVVHVVDKHILVFDPKQEEVSFFHGKKTTNQNVIKKQNKDLKFVFDAVFDETSTQSEVFEHTTKPILRSFLNGYNCTVLAYGATGAGKTHTMLGSADEPGVMYLTMLHLYKCMDEIKEEKICSTAVSYLEVYNEQIRDLLVNSGPLAVREDTQKGVVVHGLTLHQPKSSEEILHLLDNGNKNRTQHPTDMNATSSRSHAVFQIYLRQQDKTASINQNVRIAKMSLIDLAGSERASTSGAKGTRFVEGTNINRSLLALGNVINALADSKRKNQHIPYRNSKLTRLLKDSLGGNCQTIMIAAVSPSSVFYDDTYNTLKYANRAKDIKSSLKSNVLNVNNHITQYVKICNEQKAEILLLKEKLKAYEEQKAFTNENDQAKLMISNPQEKEIERFQEILNCLFQNREEIRQEYLKLEMLLKENELKSFYQQQCHKQIEMMCSEDKVEKATGKR
B2: His6-KIF15-N420 (domain or fragment, human, UniProt Q9NS87 1-420, looked up)
chain: MAPGCKTELRSVTNGQSNQPSNEGDAIKVFVRIRPPAERSGSADGEQNLCLSVLSSTSLRLHSNPEPKTFTFDHVADVDTTQESVFATVAKSIVESCMSGYNGTIFAYGQTGSGKTFTMMGPSESDNFSHNLRGVIPRSFEYLFSLIDREKEKAGAGKSFLCKCSFIEIYNEQIYDLLDSASAGLYLREHIKKGVFVVGAVEQVVTSAAEAYQVLSGGWRNRRVASTSMNRESSRSHAVFTITIESMEKSNEIVNIRTSLLNLVDLAGSERQKDTHAEGMRLKEAGNINRSLSCLGQVITALVDVGNGKQRHVCYRDSKLTFLLRDSLGGNAKTAIIANVHPGSRCFGETLSTLNFAQRAKLIKNKAVVNEDTQGNVSQLQAEVKRLKEQLAELASGQTPPESFLTRDKKKTNYMEYFQE

Target: T1, GST-KBP (Kinesin-Binding Protein)
Assay: pull-down

| Binder | binding result |
| --- | --- |
| B1 | binds |
| B2 | binds |

Reference: publication doi:10.1101/343046 (bioRxiv, 2018)
